Measured values published in the nanobody polyreactivity screen of Harvey et al. (2022).

experiment: yeast display, Sf9 membrane polyspecificity reagent, FACS + sequencing; frameworks hold sequencing errors
Procedure, shortened: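 A nanobody's polyreactivity label depends on the gate it was sorted from. Yeast display cells were stained with 10% biotinylated, detergent-solubilized Sf9 membrane reagent for 1 hour at 4 °C, enriched on streptavidin microbeads and sorted by FACS. The low and high (top ~1%) gates were set on anti-HA fluorescence for expression and streptavidin fluorescence for reagent binding.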

Which “polyreactivity (PSR sort gate)” value does the source give for “QVQLVESGGGLVQAGGSLRLSCAASGSTFYVNSMGWYRQAPGKERELVAGISFSDGSTYYADSVKGRFTISRDNAKNTVYLQMNSLKPEDTAVYYCATVGALDIYYGYGYWVQGTQVTVSS” here?
The value was “low polyreactivity”.

Which “polyreactivity (PSR sort gate)” value does the source give for “QVQLVESGGGLVQAGGSLRLSCAASGSTFYVNTMGWYRQAPGKERELVAAINWRGGSTYYADSVKGRFTISRDNAKNTVYLQMNSLKPEDTAVYYCAAYGYYRYVTAYIYDMDYWGQGTQVTVSS” here?
The value was “low polyreactivity”.

Which “polyreactivity (PSR sort gate)” value does the source give for “QVQLVESGGGLVQAGGSLRLSCAASGSTFYVNTMGWYRQAPGKERELVAAISGSGGSTYYADSVKGRFTISRDNAKNTVYLQMNSLKPEDTAVHYCAARSRYGYITFDYWGQGTQVTVSS” here?
The value was “high polyreactivity”.

With “QVQLVESGGGLVQAGGSLRLSCAASGSTFYVYAMGWYRQAPGKARELVAAIRSGGSTNYADSVKGRFTISRDNAKNTVYFQLNSLKPEDTAVYYCNADTWLYRYDYWGQGTQVTVSS” as the sequence, how does the “polyreactivity (PSR sort gate)” value read?
The value was “low polyreactivity”.

For “QVQLVESGGGLVQAGGSLRLSCAASGSTFYVYAMGWYRQAPGKERELVAAIDSGDSTNYADSVKGRFTISRDNAKNTVYLQMNSLKPEDTAVYYCAADRTVYPFNYWGQGTQVTVSS”, which “polyreactivity (PSR sort gate)” value is on record?
Its value is “low polyreactivity”.

For “QVQLVESGGGLVQAGGSLRLSCAASGSTFYVYAMGWYRQAPGKERELVAAISSSGARTYYADSVKGRFTISRDNAKNTVYLQMNSLKPEDTAVYYCAARRYYKFYYWGQGTQVTVSS”, which “polyreactivity (PSR sort gate)” value is on record?
Its value is “high polyreactivity”.

For “QVQLVESGGGLVQAGGSLRLSCAASGSTFYVYAMGWYRQAPGKERELVAAITTGGSTYYADSVKGRFTISRDNAKNTVYLQMNSLKPEDTAVYYCAADDPDPYDVPSYDYWGHGTQVTVSS”, which “polyreactivity (PSR sort gate)” value is on record?
The value was “low polyreactivity”.

Which “polyreactivity (PSR sort gate)” value does the source give for “QVQLVESGGGLVQAGGSLRLSCAASGSTFYVYVMGWYRQAPGKERELVAAISRSGGRTYYADSVKGRFTISRDNAKNTVYLQMNSLKPEDTSGYYCNARGSRRGGPGYEYWGQGTQVTVSS” here?
The value was “high polyreactivity”.

Which “polyreactivity (PSR sort gate)” value does the source give for “QVQLVESGGGLVQAGGSLRLSCAASGSTFYYFALGWYRQAPGKERELVAAISSGGTTNYADSVKGRFTISRDNAKNTVYLQINSLKPEDTAVYYCAARFRRVRFTHYDYWGQGTQVTVSS” here?
The value was “high polyreactivity”.

Which “polyreactivity (PSR sort gate)” value does the source give for “QVQLVESGGGLVQAGGSLRLSCAASGSTFYYNAMGWYRQAPGKERELVAGISGGGSTNYADSVKGRFTISRDNAKNTVYLQMNSLKPEDTAVYYCAARERYRGAIGYDYWGKGTQVTVSS” here?
The value was “low polyreactivity”.

For “QVQLVESGGGLVQAGGSLRLSCAASGSTFYYNAMRWYRQAPGKERELVAAITGSGDSTYYADSVKGRFTISRDNAKNTVYLQMNSLKPEDTAVYYCAADTYSTYWGQGTQVTVSS”, which “polyreactivity (PSR sort gate)” value is on record?
The value was “low polyreactivity”.

Which “polyreactivity (PSR sort gate)” value does the source give for “QVQLVESGGGLVQAGGSLRLSCAASGSTFYYNGMGWYRQAPGKERELVAVISISGGSTYYADSVKGRFTISRDNAKNTVYLQMNSLKPEDTAVYYCATSYVGRSAYRSYGARGGYWGQGTQVTVSS” here?
The value was “low polyreactivity”.

Which “polyreactivity (PSR sort gate)” value does the source give for “QVQLVESGGGLVQAGGSLRLSCAASGSTFYYYAMGWYRPAPGKEREFVASISSRGTSTYYADSVKGRFTISRDNAKNTVYIQMISLKPEDTAVDYGAARVWGPTRAYDYWGQGTQVTVSS” here?
Its value is “high polyreactivity”.

For “QVQLVESGGGLVQAGGSLRLSCAASGSTFYYYAMGWYRPAPGKEREMVAAINSGGRTNYADSVKGRFTISRDNAKNSVYLQMNSLKPEDTAVYYCAKRTYPYGTYRSVWGYDYWGQGTQVTVSS”, which “polyreactivity (PSR sort gate)” value is on record?
The value was “low polyreactivity”.

Which “polyreactivity (PSR sort gate)” value does the source give for “QVQLVESGGGLVQAGGSLRLSCAASGSTFYYYAMGWYRQAPGKERELVAAISASGDSTYYADSVKGRFTISRDNAKNTVYLQMNSLKPEDTAVYYCAAQYYFYPHEFDYWGQGTQVTVSS” here?
Its value is “low polyreactivity”.

With “QVQLVESGGGLVQAGGSLRLSCAASGSTFYYYAMGWYRQAPGKERELVAAISTSDGSTYYADSVKGRFTISRDNAKNTVYLQMNSLKPEDTAVYYCAAESYERFPSYYYWGQGTQVTVSS” as the sequence, how does the “polyreactivity (PSR sort gate)” value read?
Its value is “low polyreactivity”.

Which “polyreactivity (PSR sort gate)” value does the source give for “QVQLVESGGGLVQAGGSLRLSCAASGSTFYYYAMGWYRQAPGKERELVAAISVRAGITYYADSVKGRFTISRDNAKNTVYLQMNSLKPEDTAVYYCAKDHWTTSYDEGDYWGQGTQVTVSS” here?
Its value is “low polyreactivity”.

With “QVQLVESGGGLVQAGGSLRLSCAASGSTFYYYAMGWYRQAPGKERELVAAISWRCSSTYYADSVKGRFTISRDNAKNTVYLQMNSLKPEDTAVYYCAAGYPGRVSGYLFGTRATYYYWGQGTQVTVSS” as the sequence, how does the “polyreactivity (PSR sort gate)” value read?
The value was “high polyreactivity”.

Which “polyreactivity (PSR sort gate)” value does the source give for “QVQLVESGGGLVQAGGSLRLSCAASGSTFYYYAMGWYRQAPGKERELVAAITIGGSTNYADSVKGRFTISRDNAKNTVYLQMNSLKPVDTAVYYCAADYRITYARDFDYWGQGTQVTVSS” here?
The value was “low polyreactivity”.

For “QVQLVESGGGLVQAGGSLRLSCAASGSTFYYYAMGWYRQAPGKERELVAAITSGGSTDYADSVKGRFTISRDNAKNTVYLQMKSLKPEDTAVYYCAKDSQSYTREAYYYWGQGTQVTVSS”, which “polyreactivity (PSR sort gate)” value is on record?
Its value is “low polyreactivity”.

For “QVQLVESGGGLVQAGGSLRLSCAASGSTFYYYAMGWYRQAPGKERELVAAITYSGGSTTYADSVKGRFTISRDNAKNTVYLQMNSLKPEDTAVYYCAAYVYRYHRVAYEYWGQGTQVTVSS”, which “polyreactivity (PSR sort gate)” value is on record?
Its value is “high polyreactivity”.
